Assay results: the supplement of paper PMC5998384

Assays:
HeLa Kyoto [1] = test: solubility in G1/S (NP-40 vs SDS abundance) (log2 ratio); higher = more soluble; settings: cell cycle stage: G1/S
HeLa Kyoto [2] = test: melting temperature (median over replicates), in situ; higher = more thermally stable
HeLa Kyoto [3] = test: solubility change mitosis vs G1/S (difference of NP-40 vs SDS log2 ratios) (log2 ratio difference); higher = more soluble in mitosis
HeLa Kyoto [4] = test: thermal stability score vs G1/S (z-score of summed log2 fold changes over temperatures); higher = more thermally stable than in G1/S
[5] = cell cycle stage: early G1 (4.5 h after nocodazole release)
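Wherever melting temperature (median over replicates), in situ is given: HeLa Kyoto cells synchronized by double thymidine or nocodazole block, proteins quantified by TMT10plex mass spectrometry, three independent biological replicates.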
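Wherever solubility change mitosis vs G1/S (difference of NP-40 vs SDS log2 ratios) is given: synchronized HeLa Kyoto cells (double thymidine block for G1/S, nocodazole release for mitosis), protein amounts in NP-40 versus SDS lysates quantified by mass spectrometry, three biological replicates.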
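Wherever solubility in G1/S (NP-40 vs SDS abundance) is given: HeLa Kyoto cells arrested at G1/S by double thymidine block, proteins quantified by TMT10plex mass spectrometry in mild NP-40 versus SDS extracts, three biological replicates.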
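Wherever thermal stability score vs G1/S (z-score of summed log2 fold changes over temperatures) is given: synchronized HeLa Kyoto cells, proteins quantified by TMT10plex mass spectrometry, three biological replicates, mitosis taken 0.5 h after nocodazole release, G1/S directly after double thymidine block.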

Sequence	solubility in G1/S (log2) (HeLa Kyoto [1])	melting temperature (HeLa Kyoto [2]; cell cycle stage: G1/S)	melting temperature (HeLa Kyoto [2]; cell cycle stage: mitosis)	solubility change mitosis (log2) (HeLa Kyoto [3])	thermal stability score (HeLa Kyoto [4]; [5])	thermal stability score (HeLa Kyoto [4]; cell cycle stage: mitosis)
MATAMDWLPWSLLLFSLMCETSAFYVPGVAPINFHQNDPVEIKAVKLTSSRTQLPYEYYSLPFCQPSKITYKAENLGEVLRGDRIVNTPFQVLMNSEKKCEVLCSQSNKPVTLTVEQSRLVAERITEDYYVHLIADNLPVATRLELYSNRDSDDKKKEKDVQFEHGYRLGFTDVNKIYLHNHLSFILYYHREDMEEDQEHTYRVVRFEVIPQSIRLEDLKADEKSSCTLPEGTNSSPQEIDPTKENQLYFTYSVHWEESDIKWASRWDTYLTMSDVQIHWFSIINSVVVVFFLSGILSMIIIRTLRKDIANYNKEDDIEDTMEESGWKLVHGDVFRPPQYPMILSSLLGSGIQLFCMILIVIFVAMLGMLSPSSRGALMTTACFLFMFMGVFGGFSAGRLYRTLKGHRWKKGAFCTATLYPGVVFGICFVLNCFIWGKHSSGAVPFPTMVALLCMWFGISLPLVYLGYYFGFRKQPYDNPVRTNQIPRQIPEQRWYMNRFVGILMAGILPFGAMFIELFFIFSAIWENQFYYLFGFLFLVFIILVVSCSQISIVMVYFQLCAEDYRWWWRNFLVSGGSAFYVLVYAIFYFVNKLDIVEFIPSLLYFGYTALMVLSFWLLTGTIGFYAAYMFVRKIYAAVKID [TM9SF4]	-0.198	52.5 °C	53.3 °C	-0.228	1.93	4.73
MATANGAVENGQPDRKPPALPRPIRNLEVKFTKIFINNEWHESKSGKKFATCNPSTREQICEVEEGDKPDVDKAVEAAQVAFQRGSPWRRLDALSRGRLLHQLADLVERDRATLAALETMDTGKPFLHAFFIDLEGCIRTLRYFAGWADKIQGKTIPTDDNVVCFTRHEPIGVCGAITPWNFPLLMLVWKLAPALCCGNTMVLKPAEQTPLTALYLGSLIKEAGFPPGVVNIVPGFGPTVGAAISSHPQINKIAFTGSTEVGKLVKEAASRSNLKRVTLELGGKNPCIVCADADLDLAVECAHQGVFFNQGQCCTAASRVFVEEQVYSEFVRRSVEYAKKRPVGDPFDVKTEQGPQIDQKQFDKILELIESGKKEGAKLECGGSAMEDKGLFIKPTVFSEVTDNMRIAKEEIFGPVQPILKFKSIEEVIKRANSTDYGLTAAVFTKNLDKALKLASALESGTVWINCYNALYAQAPFGGFKMSGNGRELGEYALAEYTEVKTVTIKLGDKNP [ALDH1A3]	0.122	55.4 °C	57.5 °C	-0.0783	-0.893	-0.266
MATATPVPPRMGSRAGGPTTPLSPTRLSRLQEKEELRELNDRLAVYIDKVRSLETENSALQLQVTEREEVRGRELTGLKALYETELADARRALDDTARERAKLQIELGKCKAEHDQLLLNYAKKESDLNGAQIKLREYEAALNSKDAALATALGDKKSLEGDLEDLKDQIAQLEASLAAAKKQLADETLLKVDLENRCQSLTEDLEFRKSMYEEEINETRRKHETRLVEVDSGRQIEYEYKLAQALHEMREQHDAQVRLYKEELEQTYHAKLENARLSSEMNTSTVNSAREELMESRMRIESLSSQLSNLQKESRACLERIQELEDLLAKEKDNSRRMLTDKEREMAEIRDQMQQQLNDYEQLLDVKLALDMEISAYRKLLEGEEERLKLSPSPSSRVTVSRASSSRSVRTTRGKRKRVDVEESEASSSVSISHSASATGNVCIEEIDVDGKFIRLKNTSEQDQPMGGWEMIRKIGDTSVSYKYTSRYVLKAGQTVTIWAANAGVTASPPTDLIWKNQNSWGTGEDVKVILKNSQGEEVAQRSTVFKTTIPEEEEEEEEAAGVVVEEELFHQQGTPRASNRSCAIM [LMNB1]	-1.97	51.1 °C	50.1 °C	1.92	-12	-7.18
MATDELATKLSRRLQMEGEGGGETPEQPGLNGAAAAAAGAPDEAAEALGSADCELSAKLLRRADLNQGIGEPQSPSRRVFNPYTEFKEFSRKQIKDMEKMFKQYDAGRDGFIDLMELKLMMEKLGAPQTHLGLKNMIKEVDEDFDSKLSFREFLLIFRKAAAGELQEDSGLCVLARLSEIDVSSEGVKGAKSFFEAKVQAINVSSRFEEEIKAEQEERKKQAEEMKQRKAAFKELQSTFK [EFHD2]	0.681	52.5 °C	53.7 °C	0.139	1.76	0.882
MATDSWALAVDEQEAAVKSMTNLQIKEEKVKADTNGIIKTSTTAEKTDEEEKEDRAAQSLLNKLIRSNLVDNTNQVEVLQRDPNSPLYSVKSFEELRLKPQLLQGVYAMGFNRPSKIQENALPMMLAEPPQNLIAQSQSGTGKTAAFVLAMLSRVEPSDRYPQCLCLSPTYELALQTGKVIEQMGKFYPELKLAYAVRGNKLERGQKISEQIVIGTPGTVLDWCSKLKFIDPKKIKVFVLDEADVMIATQGHQDQSIRIQRMLPRNCQMLLFSATFEDSVWKFAQKVVPDPNVIKLKREEETLDTIKQYYVLCSSRDEKFQALCNLYGAITIAQAMIFCHTRKTASWLAAELSKEGHQVALLSGEMMVEQRAAVIERFREGKEKVLVTTNVCARGIDVEQVSVVINFDLPVDKDGNPDNETYLHRIGRTGRFGKRGLAVNMVDSKHSMNILNRIQEHFNKKIERLDTDDLDEIEKIAN [DDX19A]	0.212	49.9 °C	49.9 °C	-0.05	1.53	0.923
MATDWLGSIVSINCGDSLGVYQGRVSAVDQVSQTISLTRPFHNGVKCLVPEVTFRAGDITELKILEIPGPGDNQHFGDLHQTELGPSGAGCQVGINQNGTGKFVKKPASSSSAPQNIPKRTDVKSQDVAVSPQQQQCSKSYVDRHMESLSQSKSFRRRHNSWSSSSRHPNQATPKKSGLKNGQMKNKDDECFGDDIEEIPDTDFDFEGNLALFDKAAVFEEIDTYERRSGTRSRGIPNERPTRYRHDENILESEPIVYRRIIVPHNVSKEFCTDSGLVVPSISYELHKKLLSVAEKHGLTLERRLEMTGVCASQMALTLLGGPNRLNPKNVHQRPTVALLCGPHVKGAQGISCGRHLANHDVQVILFLPNFVKMLESITNELSLFSKTQGQQVSSLKDLPTSPVDLVINCLDCPENVFLRDQPWYKAAVAWANQNRAPVLSIDPPVHEVEQGIDAKWSLALGLPLPLGEHAGRIYLCDIGIPQQVFQEVGINYHSPFGCKFVIPLHSA [EDC3]	-0.0361	50.1 °C	50 °C	0.245	1.79	1.47
MATEHPEPPKAELQLPPPPPPGHYGAWAAQELQAKLAEIGAPIQGNREELVERLQSYTRQTGIVLNRPVLRGEDGDKAAPPPMSAQLPGIPMPPPPLGLPPLQPPPPPPPPPPGLGLGFPMAHPPNLGPPPPLRVGEPVALSEEERLKLAQQQAALLMQQEERAKQQGDHSLKEHELLEQQKRAAVLLEQERQQEIAKMGTPVPRPPQDMGQIGVRTPLGPRVAAPVGPVGPTPTVLPMGAPVPRPRGPPPPPGDENREMDDPSVGPKIPQALEKILQLKESRQEEMNSQQEEEEMETDARSSLGQSASETEEDTVSVSKKEKNRKRRNRKKKKKPQRVRGVSSESSGDREKDSTRSRGSDSPAADVEIEYVTEEPEIYEPNFIFFKRIFEAFKLTDDVKKEKEKEPEKLDKLENSAAPKKKGFEEEHKDSDDDSSDDEQEKKPEAPKLSKKKLRRMNRFTVAELKQLVARPDVVEMHDVTAQDPKLLVHLKATRNSVPVPRHWCFKRKYLQGKRGIEKPPFELPDFIKRTGIQEMREALQEKEEQKTMKSKMREKVRPKMGKIDIDYQKLHDAFFKWQTKPKLTIHGDLYYEGKEFETRLKEKKPGDLSDELRISLGMPVGPNAHKVPPPWLIAMQRYGPPPSYPNLKIPGLNSPIPESCSFGYHAGGWGKPPVDETGKPLYGDVFGTNAAEFQTKTEEEEIDRTPWGELEPSDEESSEEEEEEESDEDKPDETGFITPADSGLITPGGFSSVPAGMETPELIELRKKKIEEAMDGSETPQLFTVLPEKRTATVGGAMMGSTHIYDMSTVMSRKGPAPELQGVEVALAPEELELDPMAMTQKYEEHVREQQAQVEKEDFSDMVAEHAAKQKQKKRKAQPQDSRGGSKKYKEFKF [SF3B2]	-0.165	50.5 °C	49.9 °C	0.237	-1.42	-2.09
MATEIGSPPRFFHMPRFQHQAPRQLFYKRPDFAQQQAMQQLTFDGKRMRKAVNRKTIDYNPSVIKYLENRIWQRDQRDMRAIQPDAGYYNDLVPPIGMLNNPMNAVTTKFVRTSTNKVKCPVFVVRWTPEGRRLVTGASSGEFTLWNGLTFNFETILQAHDSPVRAMTWSHNDMWMLTADHGGYVKYWQSNMNNVKMFQAHKEAIREASFSPTDNKFATCSDDGTVRIWDFLRCHEERILRGHGADVKCVDWHPTKGLVVSGSKDSQQPIKFWDPKTGQSLATLHAHKNTVMEVKLNLNGNWLLTASRDHLCKLFDIRNLKEELQVFRGHKKEATAVAWHPVHEGLFASGGSDGSLLFWHVGVEKEVGGMEMAHEGMIWSLAWHPLGHILCSGSNDHTSKFWTRNRPGDKMRDRYNLNLLPGMSEDGVEYDDLEPNSLAVIPGMGIPEQLKLAMEQEQMGKDESNEIEMTIPGLDWGMEEVMQKDQKKVPQKKVPYAKPIPAQFQQAWMQNKVPIPAPNEVLNDRKEDIKLEEKKKTQAEIEQEMATLQYTNPQLLEQLKIERLAQKQVEQIQPPPSSGTPLLGPQPFPGQGPMSQIPQGFQQPHPSQQMPMNMAQMGPPGPQGQFRPPGPQGQMGPQGPPLHQGGGGPQGFMGPQGPQGPPQGLPRPQDMHGPQGMQRHPGPHGPLGPQGPPGPQGSSGPQGHMGPQGPPGPQGHIGPQGPPGPQGHLGPQGPPGTQGMQGPPGPRGMQGPPHPHGIQGGPGSQGIQGPVSQGPLMGLNPRGMQGPPGPRENQGPAPQGMIMGHPPQEMRGPHPPGGLLGHGPQEMRGPQEIRGMQGPPPQGSMLGPPQELRGPPGSQSQQGPPQGSLGPPPQGGMQGPPGPQGQQNPARGPHPSQGPIPFQQQKTPLLGDGPRAPFNQEGQSTGPPPLIPGLGQQGAQGRIPPLNPGQGPGPNKGDSRGPPNHHMGPMSERRHEQSGGPEHGPERGPFRGGQDCRGPPDRRGPHPDFPDDFSRPDDFHPDKRFGHRLREFEGRGGPLPQEEKWRRGGPGPPFPPDHREFSEGDGRGAARGPPGAWEGRRPGDERFPRDPEDPRFRGRREESFRRGAPPRHEGRAPPRGRDGFPGPEDFGPEENFDASEEAARGRDLRGRGRGTPRGGRKGLLPTPDEFPRFEGGRKPDSWDGNREPGPGHEHFRDTPRPDHPPHDGHSPASRERSSSLQGMDMASLPPRKRPWHDGPGTSEHREMEAPGGPSEDRGGKGRGGPGPAQRVPKSGRSSSLDGEHHDGYHRDEPFGGPPGSGTPSRGGRSGSNWGRGSNMNSGPPRRGASRGGGRGR [WDR33]	-0.421	49.3 °C	49.8 °C	0.257	0.933	1.06
MATELEYESVLCVKPDVSVYRIPPRASNRGYRASDWKLDQPDWTGRLRITSKGKTAYIKLEDKVSGELFAQAPVEQYPGIAVETVTDSSRYFVIRIQDGTGRSAFIGIGFTDRGDAFDFNVSLQDHFKWVKQESEISKESQEMDARPKLDLGFKEGQTIKLCIGNITNKKGGASKPRTARGGGLSLLPPPPGGKVTIPPPSSSVAISNHVTPPPIPKSNHGGSDADILLDLDSPAPVTTPAPTPVSVSNDLWGDFSTASSSVPNQAPQPSNWVQF [NECAP1]	0.521	51.5 °C	52.4 °C	-0.274	0.202	0.108
